Test: soluble on expression in E. coli; label from the status in PepcDB or PDB records

With “MAHHHHHHMEGARGSTLQVCGERHTMSLSLATALYADATRLYRLGDLHHARGAAEEALLSLSHSPHSDISDHTNHRHGDAHHEEAADSVSVGCEGSQAQQRQRHRLFGNTLLLLSSIYMAVQDYAEAERLLVTCDGYWRERLTSTHTRLSSVGTSAEVECACCSELDEGLAGVAYNRAVLRLEQLRRTPSFPASRDDGELWVAPPADLCGTDARLTYSLIPLSSTAASSGTPETLLASVMALLLDAQDRLAHTLGPPRGLLADVLHTIGVCHYEAADYIAALQAWQRSMAIRVHLQALRRRSDKNAAQRALHGGGGGECGDGTEELKLALTMEHVAQVYRLLEGRSVEALKLLDTVAATRRRYLGPTDPLCVRTLVLKGVLAAELGHTQLARALLERCSAIGGDASPETPPPSSSAYAVQEVEQ” as the sequence, how does the “soluble on expression in E. coli” value read?
Its value is “soluble”.

For “MDLKITNGFYDPSHLSYEVVERKGLGHPDTLADGIAEQIEIDYSLYCLDKFGVIPHHNFDKIIIRGGHSVQDFGGSDFIEPIKIIFLGRASKKCFNSSIPLFKIQKKAATKYLNRILPNLDVENYVEFETLTSDFTTKTNWFSPEAIEDLPEYLDVPKANDTATMISYWPLTISEELALMIEGYFYKLDKNELPTPRFTKMGGDIKVMVVRNDLEYSIRINFPLISKFFNNDIESQLYVDKHVEKIKKYIEQKYKNISFSIDYHYYLTTTGSCIDFGEEGAVGRGNKTHGIISSFRPNTMEAPAGKNCTYFVGKVWGFLSDTIAKEIYEAFNTPCQIIMQLNIGSKLYRPTHLFIQTEESVDQERVLEIVNRHLNNGKQNTNLILSTQHFIPKTNVYDG”, which “soluble on expression in E. coli” value is on record?
The value was “not soluble”.

For “MQLEELINQHYSKLNDNDFHILKYILNHKHTCYHLGIDALAKACSVSRSSILRLAQKLGFSGYSEFRVFLKWEDQPEEGESMSFEKLLDDIEANLKFLRTKDMTDMCQLIDAADRIFVYGSGNAQKICARDLQRMFIPRHRYLILIEDTNEFNLMRDDFKVNDLFIIISLSGETPELIPQARMLSAKGIPFISITNLKNNVLAQLTPHNLYATSKPVTLSDRTEIVAFAPFFLVGEALFRAYVDYKEAEKNDNEMAGDPLEHHHHHH”, which “soluble on expression in E. coli” value is on record?
Its value is “soluble”.

Which “soluble on expression in E. coli” value does the source give for “GLSAAQRQVVASTWKDIAGSDNGAGVGKECFTKFLSAHHDMAAVFGFSGASDPGVADLGAKVLAQIGVAVSHLGDEGKMVAEMKAVGVRHKGYGNKHIKAEYFEPLGASLLSAMEHRIGGKMNAAAKDAWAAAYADISGALISGLQS” here?
Its value is “soluble”.

For “SDLDLLDLNPRIIAAIKKAKLKSVKEVLHFSGPDLKRLTNLSSPEVWHLLRTASLHLRGSSILTALQLHQQKERFPTQHQRLSLGCPVLDALLRGGLPLDGITELAGRSSAGKTQLALQLCLAVQFPRQHGGLEAGAVYICTEDAFPHKRLQQLMAQQPRLRTDVPGELLQKLRFGSQIFIEHVADVDTLLECVNKKVPVLLSRGMARLVVIDSVAAPFRCEFDSQASAPRARHLQSLGATLRELSSAFQSPVLCINQVTEAMEEQGAAHGPLGFWDERVSPALGITWANQLLVRLLADRLREEEAALGCPARTLRVLSAPHLPPSSCSYTISAEGVRGTPGTQSH”, which “soluble on expression in E. coli” value is on record?
Its value is “soluble”.

For “MGSDKIHHHHHHMDAKTIDNRIRRAFNGIRQAFRGKIARVKAAGGVQQIQVEGLEGETVQDLEHAENFGFTSNPPAGSDCVVVPLGGKTSHGIIVTTTNGAYRITGLAEGETAVYNADGAKMVLKKGRIIEIDCETLNIKAPGGVNIDAPNVGCTAQITAEGQINGNGGMAVKGGSGTSFTGNVQMVGDLDTTGKLTNNGKNVGSDHKHNGDSGGTTSDPL”, which “soluble on expression in E. coli” value is on record?
Its value is “not soluble”.

Which “soluble on expression in E. coli” value does the source give for “MAHHHHHHMHNSVPASNTCSPFREETVSKRGKRSRGTGGDDKITRGTCSQPFSVITLPPGKLLEWLVCSPCRVYDVNLPRSRNNDNNISSLQCAVLPNFFVEYGGRSYSCVAKVCKPQLRKVLLRALAAVRQEMGSVDDIPHDSLLVVAVSPINAFSSECIHDASRTAMPRAREGCKIVGLCVARELSAPHRMHCESNWSHEKSEASGVGAAVQEGLGDCWEEDATRVGGTNNVRKAFCGVQLVWVADCYRRHGVAKVLVDTARRHISYGFEVPVERVAFSEPTSLGKLFAKSYSGRPDFLI” here?
The value was “soluble”.

For “MASVPENQAPKAIFTFSPEDPVTDENVVFNASNSIDEDGTIAYYVWDFGDGYEGTSTTPTITYKYKNPGTYKVKLIVTDNQGASSSFTATIKVTSATGDNSKFNFEDGTLGGFTTSGTNATGVVVNTTEKAFKGERGLKWTVTSEGEGTAELKLDGGTIVVPGTTMTFRIWIPSGAPIAAIQPYIMPHTPDWSEVLWNSTWKGYTMVKTDDWNEITLTLPEDVDPTWPQQMGIQVQTIDEGEFTIYVDAIDWLEHHHHHH”, which “soluble on expression in E. coli” value is on record?
The value was “soluble”.

Which “soluble on expression in E. coli” value does the source give for “MGSDKIHHHHHHMVKTVNWRDLLEPQTKIRDPLYGYIWVTDDELQIIDTPIFQRLRRVNQLALTKYVYPTAEHSRFVHSLGAMHCATQIFTGILNNTHSYHGIRAIDSANMLRRLRYAALLHDIGHIAFSHAAEKLILNPLQHEHLGQFIIANYSPISSILGEHIKPVISILADSVTQDNRLLHQIISGHLDADRADYLMRDSHACGVKYGEYDFERYMQAFGAINESNELKLFVHERDIFVIESFLVARHHYNMQVPYHRTRMGYDIILGRFLKEFLPKCDDAKLGLTVEEGAYTKVDLQKFEFFDDYSVFNHIKHEARTGNLWANMLLRQGHLCPVYDTTDSVDRGGKVFKKIIRRLKAKNFVEDDDFFQCRKEITASKLISTDEKENSLADTSRETIYVRTKSGKLVDIVKHSNIVRALRPVTIYRIYTSQKRKSEAEAVIADVCRKTQVDRRG” here?
Its value is “not soluble”.

With “MGSDKIHHHHHHMKLSMPRFDQAPVLVVGDVMLDRYWHGGTSRISPEAPVPVVKVDQIEDRPGGAANVALNIAALGAPASLVGVTGDDEAAESLTNSLKAAGVVARFQRIADQPTIVKLRVMSRHQQLLRIDFEEPFNTDPLALSAEVYSLLDGIKVLVLSDYGKGALKNHQALIQAARKRGIPVLADPKGKDFAIYRGASLITPNLSEFEAIVGHCEDEAQLVTKGAQLMQELDLGALLVTRGEHGMTLLRPDQQALHLPARAREVFDVTGAGDTVISTLAAAIAAGEELPHAVALANLAAGIVVGKLGTAAISAPELRRAIQREEGSERGVLGLEQLLLAVDDARAHKEKIVFTNGCFDILHAGHVTYLEQARAQGDRLIVAVNDDASVSRLKGPGRPINSVDRRMAVLAGLGAVDWVISFPEGTPENLLTHVKPDVLVKGGDYGIDQVVGADIVQAYGGEVRVLGLVENSSTTAIVEKIRGQG” as the sequence, how does the “soluble on expression in E. coli” value read?
The value was “not soluble”.

With “MQGEALKDFLFDKADDMKAVDIVTLDVKEKSSVTDYMIVCTGTSKRHVASIAEHVANEAKLSGLQPLGMNGENEGEWVVLDMGSVMLHVMQEAPRELYQLEKLWGLEHHHHHH” as the sequence, how does the “soluble on expression in E. coli” value read?
Its value is “not soluble”.

Which “soluble on expression in E. coli” value does the source give for “MGHHHHHHSHMRISPGQINQVRPKLPLLKILHAAGAQGEMFTVKEVMHYLGQYIMVKQLYDQQEQHMVYCGGDLLGELLGRQSFSVKDPSPLYDMLRKNLVTLATATT” here?
The value was “not soluble”.

Which “soluble on expression in E. coli” value does the source give for “MAARQQLALLSVSEKAGLVEFARSLNALGLGLIASGGTATALRDAGLPVRDVSDLTGFPEMLGGRVKTLHPAVHAGILARNIPEDNADMNKQDFSLVRVVVCNLYPFVKTVSSPGVTVPEAVEKIDIGGVALLRAAAKNHARVTVVCDPADYSSVAKEMAASKDKDTSVETRRHLALKAFTHTAQYDAAISDYFRKEYSKGVSQLPLRYGMNPHQSPAQLYTTRPKLPLTVVNGSPGFINLCDALNAWQLVKELKQALGIPAAASFKHVSPAGAAVGIPLSEEEAQVCMVHDLHKTLTPLASAYARSRGADRMSSFGDFIALSDICDVPTAKIISREVSDGVVAPGYEEEALKILSKKKNGGYCVLQMDPNYEPDDNEIRTLYGLQLMQKRNNAVIDRSLFKNIVTKNKTLPESAVRDLIVASIAVKYTQSNSVCYAKDGQVIGIGAGQQSRIHCTRLAGDKANSWWLRHHPRVLSMKFKAGVKRAEVSNAIDQYVTGTIGEDEDLVKWQAMFEEVPAQLTEAEKKQWIAKLTAVSLSSDAFFPFRDNVDRAKRIGVQFIVAPSGSAADEVVIEACNELGITLIHTNLRLFHH” here?
The value was “soluble”.

Which “soluble on expression in E. coli” value does the source give for “MALLREYKEIAYQWGIWKTEESPEELLALLPDPERYEQQLTLFSSPHRKLEWLSVRVLLYQLLGEEKTIEYAPSGKPHLADSSYFISISHTRGYVAVILSPVSEVGIDIEQYGQRVHKVAHKYMRPDELISEYQGEDTWSLLLHWSAKEVMFKCMDTSEVDFREHLRIMPFQVCEHGEFPAEEYRTEHKKKFMIRYLLHPDFVMTWQVTSAYSVNECDIMKKMQ” here?
Its value is “not soluble”.

For “MGSDKIHHHHHHMADNKIIQHVYIVGSKGIPANYGGFETFVEKLTAGQENRQIKYHVASRFDNSEQAGKKQRFEYNGADVFSIDVPNIGSAQAIVYDYKALKEAIRISKQNQDKHPIFYVLANRIGPFAKHFAKEIHALGGRFYLNPDGHEWARAKWPKPVRKYWKYSEKKMVAAADLIIADNPEIEKYIKKEYSSFHPQTTYIAYGTDVQRSKLTMKDQKVRDWFKQKRITENNYFLVVGRFVPENNYETMIREFMTSRTKKDFVLVTNVEKNRFYERLKQRTHFDQDPRIKFVGTVYDQELLKYIRENAFAYFHGHEVGGTNPSLLEALSMTRLNMLIDVPFNRAVAKEGAMYWNKAIGNLTAQINQTETYDKKRIIDYTQAARKRVTDEFTWESIIAKYEELFVS”, which “soluble on expression in E. coli” value is on record?
The value was “not soluble”.

Which “soluble on expression in E. coli” value does the source give for “MSLAMSKVKSITRESWILSTFPEWGSWLNEEIEQEQVAPGTFAMWWLGCTGIWLKSEGGTNVCVDFWCGTGKQSHGNPLMKQGHQMQRMAGVKKLQPNLRTTPFVLDPFAIRQIDAVLATHDHNDHIDVNVAAAVMQNCADDVPFIGPKTCVDLWIGWGVPKERCIVVKPGDVVKVKDIEIHALDAFDRTALITLPADQKAAGVLPDGMDDRAVNYLFKTPGGSLYHSGDSHYSNYYAKHGNEHQIDVALGSYGENPRGITDKMTSADMLRMGEALNAKVVIPFHHDIWSNFQADPQEIRVLWEMKKDRLKYGFKPFIWQVGGKFTWPLDKDNFEYHYPRGFDDCFTIEPDLPFKSFLEGGSHHHHHH” here?
The value was “soluble”.

With “MVRIRWFFIRHAESEANVVERWRIAGRSEAARLTERGERQARVVGEAVAIRLEQVLRVDGGDAGGVSGDAGRRRVLAPVAFTSPLLRARQTAALVLEQVAQPVKLEPVDDLAEVYQGLWEDALRSEVHTPETLQAMARNPYEFRAPGGEAQADVERRVLRAVSRMSQRVLSLLSLELEENEQTDVIVLVFTHGYVCKCLIRSVLDASPHLTGQIQVDNGALVELWLEPAAQQGALTSAAELGMWTVLRINDTWGQLTASMR” as the sequence, how does the “soluble on expression in E. coli” value read?
The value was “not soluble”.

Which “soluble on expression in E. coli” value does the source give for “VQRPWLAPLPGAPMNACRLLLCFPYGGGGASAFNDLSRLADVGVATWAVKLPGREDRSMEAPVTRVANVIEAIVDALQSVGIPYAFYGHSFGAGLALDVAHALAERDRPLPTHLVLSGRMPPHTGYSPLLGAMDDNQLWQHVCSESLLPLPTDASCSFARHALGKLKADLALNAQLTYRFIRPLPVPLYVLNGQDDPLLELHRLDEWQRYTSTSFHSEYVPGGHFFFNINFQLLYLPLLTALD” here?
The value was “not soluble”.

Which “soluble on expression in E. coli” value does the source give for “MSLEKVQLPSVPAFKGHSFLAFPTLRAYHTLRLAMEFRALETEGLLLYNGNARGKDFLALALLDGHVQFRFDTGSGPAVLTSLVPVEPGRWHRLELSRHWRQGTLSVDGEAPVVGESPSGTDGLNLDTKLYVGGLPEEQVATVLDRTSVGIGLKGCIRMLDINNQQLELSDWQRAVVQSSGVGEEGHHHHHH” here?
Its value is “soluble”.

From the DeepSol protein solubility set
